The source of these data is article PMC8655018 (Nature Communications, 2021).

Assay [1] deals with BamA (subunit of E. coli BAM) (E. coli, UniProt P0A940 21-810). Nature of the assay: cryo-EM structure; MBP-EspP (3.6 μM, from urea) folded in vitro overnight into BAM nanodiscs (1.8 μM) with SurA (25.2 μM) in 1x TBS with 1 M urea, then SEC (Superdex 200 Increase); 7.0 Å map. To be noted: both partners purified.
For assay [2], the target named is β-barrel assembly machinery (BAM), five components BamA-E, inserted in nanodiscs (E. coli, UniProt P0A940 21-810; P77774 20-392; P0A903 25-344; P0AC02 20-245; P0A937 20-113). The description is as above. To be noted: both partners purified.

B1: MBP-EspP (residues 748–1300 of EspP) with an N-terminal 6xHis tag (domain or fragment)
chain: SGMFSTSDISISGNLSMTGNPDKDNKFEPSIYLNDASYLLTDDSARLVAKNKASVVGDIHSTKSASIMFGHDESDLSQLSDRTSKGLALGLLGGFDVSYRGSVNAPSASATMNNTWWQLTGDSALKTLKSTNSMVYFTDSANNKKFHTLTVDELATSNSAYAMRTNLSESDKLEVKKHLSGENNILLVDFLQKPTPEKQLNIELVSAPKDTNENVFKASKQTIGFSDVTPVITTRETDDKITWSLTGYNTVANKEATRNAAALFSVDYKAFLNEVNNLNKRMGDLRDINGEAGAWARIMSGTGSASGGFSDNYTHVQVGVDKKHELDGLDLFTGFTVTHTDSSASADVFSGKTKSVGAGLYASAMFDSGAYIDLIGKYVHHDNEYTATFAGLGTRDYSTHSWYAGAEAGYRYHVTEDAWIEPQAELVYGSVSGKQFAWKDQGMHLSMKDKDYNPLIGRTGVDVGKSFSGKDWKVTARAGLGYQFDLLANGETVLRDASGEKRIKGEKDSRMLMSVGLNAEIRDNVRFGLEFEKSAFGKYNVDNAVNANFRYSF
notes: also called MBP-EspP substrate
As to B1, the binding result in assay [1] and in assay [2] was “binds” throughout.
